Measured values reported in article PMC8699718, “A structurally conserved site in AUP1 binds the E2 enzyme UBE2G2 and is essential for ER-associated degradation” (PLoS Biology, 2021).
Ends that are not written are not given here.

System: RI332 (truncated Ribophorin I)
Test: CHX chase: RI332 degradation in HT1080 AUP1 KO cells
Format: cell-based, human
Conditions: GFP-G2BR^AUP1 co-expressed with TM-UBE2G2, HT1080 AUP1 KO
Source text: Fig 2 The G2BR of AUP1 is required for ERAD of mutant ribophorin and GFP^u. (A) HT1080 or HRD1 KO cells were transfected with plasmid encoding RI332-MYC and with plasmid encoding HRD1 as indicated. Cells were subject to CHX chase and RI332-MYC degradation monitored by western blot. GFP serves as a transfection efficiency control. (B) HT1080 or AUP1 KO cells were transfected with plasmid encoding RI332-MYC and AUP1-FLAG WT or deletion mutants assessed for RI332 degradation. Lower band (*) in MYC blot is nonspecific. (C, D) HEK293 or AUP1 KO cells were assessed for RI332 turnover as in (B). (E) HT1080 or AUP1 KO cells were transfected with GFP^u plasmid, and its degradation assessed by emetine chase, which has previously been used to assess GFP^u turnover. […] (F) HT1080 AUP1 KO cells were transfected with GFP^u and the indicated AUP1-FLAG WT or deletion mutants, and GFP^u degradation assessed as in (E). […]
Fig 8 Recruitment of UBE2G2 to the ER membrane and activation by G2BR^AUP1 is required for ERAD. (A) HT1080 or AUP1 KO cells were transfected with NHK-HA and either empty vector or MYC-UBE2G2 and NHK turnover assessed by CHX chase. (B) AUP1 KO cells were transfected with NHK-HA and GFP fusions of either a scrambled G2BR sequence (SCR) or G2BR^AUP1 and NHK turnover and levels of endogenous UBE2G2 assessed. […] (G) U-2 OS cells were transfected as in (F), and localization assessed by SIM. […]

GFP-G2BR^AUP1: GFP fusion of AUP1 aa 378 to 404 (SSWARQESLQERKQALYEYARRRFTER; also: GFP fusion; UniProt Q9Y679 378-404, looked up, fragment)
RI332 degradation, soluble G2BR with TM-UBE2G2: restored degradation of RI332
